B1: Placental protein 13-like (Homo sapiens), Q8TCE9 (parent)
chain: MSSLPVPYTLPVSLPVGSCVIITGTPILTFVKDPQLEVNFYTGMDEDSDIAFQFRLHFGHPAIMNSCVFGIWRYEEKCYYLPFEDGKPFELCIYVRHKEYKVMVNGQRIYNFAHRFPPASVKMLQVFRDISLTRVLISD
B2: E3 ubiquitin-protein ligase MYLIP (Homo sapiens), Q8WY64 (parent)
chain: MLCYVTRPDAVLMEVEVEAKANGEDCLNQVCRRLGIIEVDYFGLQFTGSKGESLWLNLRNRISQQMDGLAPYRLKLRVKFFVEPHLILQEQTRHIFFLHIKEALLAGHLLCSPEQAVELSALLAQTKFGDYNQNTAKYNYEELCAKELSSATLNSIVAKHKELEGTSQASAEYQVLQIVSAMENYGIEWHSVRDSEGQKLLIGVGPEGISICKDDFSPINRIAYPVVQMATQSGKNVYLTVTKESGNSIVLLFKMISTRAASGLYRAITETHAFYRCDTVTSAVMMQYSRDLKGHLASLFLNENINLGKKYVFDIKRTSKEVYDHARRALYNAGVVDLVSRNNQSPSHSPLKSSESSMNCSSCEGLSCQQTRVLQEKLRKLKEAMLCMVCCEEEINSTFCPCGHTVCCESCAAQLQSCPVCRSRVEHVQHVYLPTHTSLLNLTVI
partner: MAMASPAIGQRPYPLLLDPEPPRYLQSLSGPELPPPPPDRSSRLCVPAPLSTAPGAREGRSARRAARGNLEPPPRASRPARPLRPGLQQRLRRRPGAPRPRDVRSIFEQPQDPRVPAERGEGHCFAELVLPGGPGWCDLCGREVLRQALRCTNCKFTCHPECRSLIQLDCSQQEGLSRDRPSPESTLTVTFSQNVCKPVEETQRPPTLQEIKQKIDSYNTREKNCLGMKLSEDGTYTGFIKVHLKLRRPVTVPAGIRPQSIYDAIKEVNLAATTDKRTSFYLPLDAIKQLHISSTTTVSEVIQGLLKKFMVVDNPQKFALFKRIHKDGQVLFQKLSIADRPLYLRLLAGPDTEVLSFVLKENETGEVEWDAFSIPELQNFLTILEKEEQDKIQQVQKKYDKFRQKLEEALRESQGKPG
B3: Four and a half LIM domains protein 2 (Homo sapiens), Q14192 (parent)
chain: MTERFDCHHCNESLFGKKYILREESPYCVVCFETLFANTCEECGKPIGCDCKDLSYKDRHWHEACFHCSQCRNSLVDKPFAAKEDQLLCTDCYSNEYSSKCQECKKTIMPGTRKMEYKGSSWHETCFICHRCQQPIGTKSFIPKDNQNFCVPCYEKQHAMQCVQCKKPITTGGVTYREQPWHKECFVCTACRKQLSGQRFTARDDFAYCLNCFCDLYAKKCAGCTNPISGLGGTKYISFEERQWHNDCFNCKKCSLSLVGRGFLTERDDILCPDCGKDI
partner: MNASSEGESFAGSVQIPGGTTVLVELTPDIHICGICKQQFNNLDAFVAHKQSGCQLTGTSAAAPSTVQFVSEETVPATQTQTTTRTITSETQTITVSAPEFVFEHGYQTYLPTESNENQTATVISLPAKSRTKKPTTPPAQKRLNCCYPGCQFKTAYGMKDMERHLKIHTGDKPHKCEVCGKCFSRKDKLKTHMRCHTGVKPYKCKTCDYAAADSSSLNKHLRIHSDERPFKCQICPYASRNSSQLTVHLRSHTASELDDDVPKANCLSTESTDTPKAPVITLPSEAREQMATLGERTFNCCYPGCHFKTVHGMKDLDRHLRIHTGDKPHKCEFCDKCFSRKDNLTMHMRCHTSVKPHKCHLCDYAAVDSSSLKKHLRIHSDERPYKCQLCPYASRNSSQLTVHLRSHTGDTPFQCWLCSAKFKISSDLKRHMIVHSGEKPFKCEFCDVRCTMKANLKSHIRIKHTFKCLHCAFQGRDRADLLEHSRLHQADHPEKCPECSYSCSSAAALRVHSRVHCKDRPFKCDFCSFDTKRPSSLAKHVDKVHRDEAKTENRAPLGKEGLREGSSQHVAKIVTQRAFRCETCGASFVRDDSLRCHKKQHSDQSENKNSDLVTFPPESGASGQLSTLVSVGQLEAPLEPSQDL
B4: Pachytene checkpoint protein 2 homolog (Homo sapiens), Q15645 (parent)
chain: MDEAVGDLKQALPCVAESPTVHVEVHQRGSSTAKKEDINLSVRKLLNRHNIVFGDYTWTEFDEPFLTRNVQSVSIIDTELKVKDSQPIDLSACTVALHIFQLNEDGPSSENLEEETENIIAANHWVLPAAEFHGLWDSLVYDVEVKSHLLDYVMTTLLFSDKNVNSNLITWNRVVLLHGPPGTGKTSLCKALAQKLTIRLSSRYRYGQLIEINSHSLFSKWFSESGKLVTKMFQKIQDLIDDKDALVFVLIDEVESLTAARNACRAGTEPSDAIRVVNAVLTQIDQIKRHSNVVILTTSNITEKIDVAFVDRADIKQYIGPPSAAAIFKIYLSCLEELMKCQIIYPRQQLLTLRELEMIGFIENNVSKLSLLLNDISRKSEGLSGRVLRKLPFLAHALYVQAPTVTIEGFLQALSLAVDKQFEERKKLAAYI
partner: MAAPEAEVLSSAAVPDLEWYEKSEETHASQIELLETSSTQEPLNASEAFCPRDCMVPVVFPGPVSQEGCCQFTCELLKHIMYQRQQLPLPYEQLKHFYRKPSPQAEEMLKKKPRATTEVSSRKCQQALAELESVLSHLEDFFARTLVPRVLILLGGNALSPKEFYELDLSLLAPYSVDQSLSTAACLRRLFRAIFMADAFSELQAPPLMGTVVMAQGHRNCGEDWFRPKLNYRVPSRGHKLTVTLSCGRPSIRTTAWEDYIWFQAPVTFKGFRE
B5: Golgin-45 (Homo sapiens), Q9H2G9 (parent)
chain: MTTKNLETKVTVTSSPIRGAGDGMETEEPPKSVEVTSGVQSRKHHSLQSPWKKAVPSESPGVLQLGKMLTEKAMEVKAVRILVPKAAITHDIPNKNTKVKSLGHHKGEFLGQSEGVIEPNKELSEVKNVLEKLKNSERRLLQDKEGLSNQLRVQTEVNRELKKLLVASVGDDLQYHFERLAREKNQLILENEALGRNTAQLSEQLERMSIQCDVWRSKFLASRVMADELTNSRAALQRQNRDAHGAIQDLLSEREQFRQEMIATQKLLEELLVSLQWGREQTYSPSVQPHSTAELALTNHKLAKAVNSHLLGNVGINNQKKIPSTVEFCSTPAEKMAETVLRILDPVTCKESSPDNPFFESSPTTLLATKKNIGRFHPYTRYENITFNCCNHCRGELIAL

Variants of: B1
Settings: with trim1_human MID2, Q9UJV3
Sequence of trim1_human MID2, Q9UJV3 (Q9UJV3 whole entry): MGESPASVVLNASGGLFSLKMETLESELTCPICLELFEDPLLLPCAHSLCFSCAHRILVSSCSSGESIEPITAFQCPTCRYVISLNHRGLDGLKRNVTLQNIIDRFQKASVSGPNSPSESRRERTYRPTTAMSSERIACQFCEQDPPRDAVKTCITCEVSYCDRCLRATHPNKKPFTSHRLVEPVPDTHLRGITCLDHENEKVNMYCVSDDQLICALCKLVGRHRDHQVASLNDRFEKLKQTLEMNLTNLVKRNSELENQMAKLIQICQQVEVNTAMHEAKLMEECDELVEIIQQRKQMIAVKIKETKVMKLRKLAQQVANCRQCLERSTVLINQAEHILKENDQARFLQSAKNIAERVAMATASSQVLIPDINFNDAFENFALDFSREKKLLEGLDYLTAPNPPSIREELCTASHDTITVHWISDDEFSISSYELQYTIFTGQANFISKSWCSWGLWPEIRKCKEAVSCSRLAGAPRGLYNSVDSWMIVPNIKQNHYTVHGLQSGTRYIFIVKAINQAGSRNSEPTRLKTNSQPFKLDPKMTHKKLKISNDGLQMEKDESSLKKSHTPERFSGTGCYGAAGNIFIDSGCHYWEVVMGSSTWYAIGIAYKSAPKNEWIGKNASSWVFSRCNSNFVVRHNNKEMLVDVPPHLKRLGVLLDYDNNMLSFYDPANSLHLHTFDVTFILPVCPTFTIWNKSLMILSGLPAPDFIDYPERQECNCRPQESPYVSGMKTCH

| Variant | effect of a mutation on the interaction |
| --- | --- |
| M123T | disrupting interaction strength |

Variants of: B1
Settings: with ikzf3_human IKZF3, Q9UKT9
Sequence of ikzf3_human IKZF3, Q9UKT9 (Q9UKT9 whole entry): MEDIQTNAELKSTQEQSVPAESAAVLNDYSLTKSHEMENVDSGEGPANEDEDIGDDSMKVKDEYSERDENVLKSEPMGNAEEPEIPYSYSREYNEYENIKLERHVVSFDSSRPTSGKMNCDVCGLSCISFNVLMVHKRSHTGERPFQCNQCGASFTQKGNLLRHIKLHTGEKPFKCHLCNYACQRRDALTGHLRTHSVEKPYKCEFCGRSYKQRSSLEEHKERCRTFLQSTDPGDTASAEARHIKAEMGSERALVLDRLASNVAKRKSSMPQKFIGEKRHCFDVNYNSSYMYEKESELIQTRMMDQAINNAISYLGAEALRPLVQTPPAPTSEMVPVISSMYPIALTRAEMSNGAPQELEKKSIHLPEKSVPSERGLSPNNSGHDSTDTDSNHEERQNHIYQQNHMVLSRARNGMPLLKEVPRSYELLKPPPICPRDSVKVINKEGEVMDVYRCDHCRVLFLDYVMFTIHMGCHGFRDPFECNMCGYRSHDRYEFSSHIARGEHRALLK

| Variant | effect of a mutation on the interaction |
| --- | --- |
| M123T | disrupting interaction strength |

Variants of: B1
Settings: with itf2_human TCF4, P15884
Sequence of itf2_human TCF4, P15884 (P15884 whole entry): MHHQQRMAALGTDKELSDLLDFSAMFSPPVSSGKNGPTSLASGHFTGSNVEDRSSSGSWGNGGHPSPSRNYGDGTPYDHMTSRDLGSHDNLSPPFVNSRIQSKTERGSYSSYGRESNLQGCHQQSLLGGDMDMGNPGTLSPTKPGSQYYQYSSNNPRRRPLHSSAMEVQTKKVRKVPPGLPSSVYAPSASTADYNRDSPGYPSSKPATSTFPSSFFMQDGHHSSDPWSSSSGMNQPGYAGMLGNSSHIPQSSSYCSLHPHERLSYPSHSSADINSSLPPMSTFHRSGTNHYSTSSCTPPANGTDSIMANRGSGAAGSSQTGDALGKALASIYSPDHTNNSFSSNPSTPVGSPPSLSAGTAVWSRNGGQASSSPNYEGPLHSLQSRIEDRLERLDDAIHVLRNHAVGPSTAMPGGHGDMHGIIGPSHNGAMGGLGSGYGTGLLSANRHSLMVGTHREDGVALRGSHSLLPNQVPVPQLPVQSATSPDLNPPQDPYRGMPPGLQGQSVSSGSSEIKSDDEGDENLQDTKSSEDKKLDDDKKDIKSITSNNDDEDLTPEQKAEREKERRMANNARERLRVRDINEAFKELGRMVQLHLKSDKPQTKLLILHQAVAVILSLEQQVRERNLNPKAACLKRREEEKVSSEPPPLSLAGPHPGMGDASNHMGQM

| Variant | effect of a mutation on the interaction |
| --- | --- |
| M123T | disrupting interaction strength |

Variants of: B1
Settings: with gfap_human GFAP

| Variant | effect of a mutation on the interaction |
| --- | --- |
| M123T | disrupting interaction strength |

Variants of: B2
Settings: with rasf5_human RASSF5, Q8WWW0

| Variant | effect of a mutation on the interaction |
| --- | --- |
| N342S | with no effect |

Variants of: B3
Settings: with zf64b_human ZFP64, Q9NTW7

| Variant | effect of a mutation on the interaction |
| --- | --- |
| A37S | with no effect |
| N95K | with no effect |

Variants of: B4
Settings: with md2bp_human MAD2L1BP

| Variant | effect of a mutation on the interaction |
| --- | --- |
| G409E | with no effect |

Variants of: B5
Settings: with aakb2_human PRKAB2, O43741
Sequence of aakb2_human PRKAB2, O43741 (O43741 whole entry): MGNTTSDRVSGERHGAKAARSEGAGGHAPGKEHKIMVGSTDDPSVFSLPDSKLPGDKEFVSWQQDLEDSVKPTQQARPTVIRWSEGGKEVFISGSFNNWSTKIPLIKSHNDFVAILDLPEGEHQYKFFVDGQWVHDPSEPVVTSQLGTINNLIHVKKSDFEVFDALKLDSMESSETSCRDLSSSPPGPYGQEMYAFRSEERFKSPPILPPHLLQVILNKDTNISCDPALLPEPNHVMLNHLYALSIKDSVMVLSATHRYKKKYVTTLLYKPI

| Variant | effect of a mutation on the interaction |
| --- | --- |
| Q40R | with no effect |
| H45R | with no effect |

Variants of: B5
Settings: with rab2a_human RAB2A

| Variant | effect of a mutation on the interaction |
| --- | --- |
| Q40R | with no effect |
| H45R | with no effect |

Variants of: B5
Settings: with zbt24_human ZBTB24, O43167
Sequence of zbt24_human ZBTB24, O43167 (O43167 whole entry): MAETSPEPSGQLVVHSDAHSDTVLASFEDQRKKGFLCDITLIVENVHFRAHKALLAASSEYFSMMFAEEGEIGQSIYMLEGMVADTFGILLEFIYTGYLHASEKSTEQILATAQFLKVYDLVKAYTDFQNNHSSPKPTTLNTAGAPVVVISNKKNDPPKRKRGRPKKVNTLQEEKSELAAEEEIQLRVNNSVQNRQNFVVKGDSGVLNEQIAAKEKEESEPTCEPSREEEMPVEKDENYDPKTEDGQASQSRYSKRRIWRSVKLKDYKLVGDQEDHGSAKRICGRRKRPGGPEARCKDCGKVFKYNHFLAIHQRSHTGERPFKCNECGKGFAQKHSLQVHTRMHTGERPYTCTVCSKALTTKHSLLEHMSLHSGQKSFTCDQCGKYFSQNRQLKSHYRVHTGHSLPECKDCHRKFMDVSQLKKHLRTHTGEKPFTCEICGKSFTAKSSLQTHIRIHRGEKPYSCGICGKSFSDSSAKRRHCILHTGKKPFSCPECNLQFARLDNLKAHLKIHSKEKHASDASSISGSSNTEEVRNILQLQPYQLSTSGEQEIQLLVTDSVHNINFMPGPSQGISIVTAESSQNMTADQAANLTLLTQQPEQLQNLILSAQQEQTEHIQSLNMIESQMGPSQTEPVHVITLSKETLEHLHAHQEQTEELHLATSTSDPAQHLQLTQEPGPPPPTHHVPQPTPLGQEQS

| Variant | effect of a mutation on the interaction |
| --- | --- |
| Q40R | with no effect |
| H45R | with no effect |

Reference: IntAct's records for PubMed 31515488
